# US20230115785, “ANALYTE DETECTION” (University of Leeds, published 2023)
# T1: C-reactive protein (CRP, pentamer) (Homo sapiens, UniProt P02741 P02741:19-224)
# T1 sequence: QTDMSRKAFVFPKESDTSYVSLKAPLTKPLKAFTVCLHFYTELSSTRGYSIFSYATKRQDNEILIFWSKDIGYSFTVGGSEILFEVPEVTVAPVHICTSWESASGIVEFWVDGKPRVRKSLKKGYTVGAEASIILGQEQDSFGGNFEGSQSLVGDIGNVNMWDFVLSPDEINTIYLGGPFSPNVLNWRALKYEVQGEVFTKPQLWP
# B1: hCRP aptamer 1 (ssDNA)
# DNA: AAGCCTTTATTTCAACGGCAGGAAGACAAACACGATGGGGGGGTATGATTTGATGTGGTTGTTGCATGATCGTGGTCTGTGGTGCTGT
# modifications: 5'-NH2
# B2: Nonspecific random aptamer (ssDNA)
# DNA: CTGAACAAGAAAAATAGCAGAACTTACGAGCCAGGGGAAACAGTAAGGCCTAATTAGGTAAAGGAGTAAGTGCTCGAACGCTTCAGA
# modifications: 5'-NH2
# B3: hCRP aptamer 2 (ssDNA)
# DNA: CGAAGGGGATTCGAGGGGTGATTGCGTGCTCCATTTGGTGTTTTTTTTTTTTGCAAGGATAAAAATTT
# modifications: 3'-NH2
# How the values were obtained:
# Details in all cases: chain copies: 5 (pentamer, stated)
# [1] = target: T1, C-reactive protein (CRP, pentamer); experiment: SPR; amine-anchored extended aptamer; 10 mM TrisAc, 10 mM MgAc, 2 mM CaCl2, 1 mM EDTA; faster kinetics than aptamer 2
# Procedure: (§1) Aptamer-protein binding studies were carried out via an ESPRIT SPR instrument from Metrohm Autolab B.V (Utrecht, The Netherlands). For this, the end-modified aptamers attached with an amine group were anchored onto the gold SPR surface functionalized with a self-assembled monolayer (SAM) of C11PEG6COOH via EDC (1-ethyl-3-(3-dimethylaminopropyl) carbodiimide) NHS (N-hydroxysuccinimide) coupling chemistry. The gold SPR surface from XanTec bioanalytics was cleaned by sonication twice in acetone for 10 minutes and then immersed in an ethanolic 1 mM SAM solution containing 5% acetic acid and allowed to stand at room temperature for 48 hours. Following the incubation, the surface was rinsed with 100% ethanol, quickly dried with nitrogen and was mounted on the SPR system. To attach the DNA aptamers to the gold surface, the COOH-terminated SAM surface was activated with 50 mM EDC and 200 mM NHS in 100 mM MES buffer at pH5.5 for around 15 min. The surface was washed with the MES buffer, followed by a 30-minute incubation with 5 μM of DNA aptamer in 10 mM sodium acetate buffer at pH5.5. Any remaining activated COOH sites were quenched by exposing the surface to 100 mM ethanolamine in water for around 10 min. […] The binding was measured as the change in resonance angle.
# [2] = target: T1, C-reactive protein (CRP, pentamer); experiment: nanopipette translocation; carrier 9 nM, CRP 90 nM; no single peaks
# Procedure: For the translocation experiments the nanopipettes with the working electrode were filled with the translocation buffer (0.1 M KCl with 10 mM TrisAc, 10 mM MgAc, 2 mM CaCl₂) and 1 mM EDTA) containing the DNA origami and analyte where applicable at a final concentration of 500 pM. The Mg is required to maintain the stability of the DNA origami, and the Ca to match the buffer conditions used to select the DNA aptamers employed as binding moieties. The grounded counter electrode was immersed in a 0.1 M KCl solution completing the circuit. […] Measurements were recorded using the Axopatch 700b amplifier, and the data were acquired at a rate of 100 kHz and 20 kHz low pass filtered. […]
# To investigate the specificity of our sensing system, and in particular of the carriers to the CRP target, a random DNA sequence was selected to act as a non-specific aptamer and the translocation ion current was measured for carrier concentration of 9 nM and CRP concentration of 90 nM, i.e. the highest concentration reported in FIG. 6. A single distribution of peak amplitudes and dwell times with averages of 69±5 pA and […], respectively, were found, consistent with the values measured with unoccupied carriers.
# [3] = target: T1, C-reactive protein (CRP, pentamer); experiment: SPR; amine-anchored extended aptamer; slower kinetics than aptamer 1; similar carrier sensing results (p217)
# Procedure: as §1
binder,measurement,setting,value
B1,binding result,[1],binds
B2,binding result,[2],no binding
B3,binding result,[3],binds
